Test [1] addresses SAS-6 head domain (UniProt Q6UVJ0). As to conditions: cited from earlier work.
In test [2] the target is T1, SAS-5::His6, full-length, refolded in vitro (C. elegans, UniProt Q20010 1-404, a glycine codon was introduced immediately next to initiator methionine).
T1 construct: SAS-5 of C. elegans, longer isoform SAS-5a, full length; codon-optimised gene in pET21b (NdeI/HindIII); a glycine codon was put next to the initiator methionine; Prey in the pull-downs with GST-ZYG-1 fragment baits; also called full-length SAS-5; SAS-5::6XHis; not shown: His6, C-terminal, kept
T1 sequence (looked up): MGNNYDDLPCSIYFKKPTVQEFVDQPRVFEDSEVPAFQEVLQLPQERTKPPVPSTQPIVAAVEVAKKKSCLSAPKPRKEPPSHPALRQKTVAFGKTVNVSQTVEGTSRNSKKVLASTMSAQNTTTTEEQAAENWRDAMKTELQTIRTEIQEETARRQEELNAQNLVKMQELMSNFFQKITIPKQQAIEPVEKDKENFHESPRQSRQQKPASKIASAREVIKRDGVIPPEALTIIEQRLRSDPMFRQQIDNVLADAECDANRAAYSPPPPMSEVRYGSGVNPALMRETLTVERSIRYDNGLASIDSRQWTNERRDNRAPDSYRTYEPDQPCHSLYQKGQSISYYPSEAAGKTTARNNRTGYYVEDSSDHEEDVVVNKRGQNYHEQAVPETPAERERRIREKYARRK
Put plainly: pull-down; GST-ZYG-1 fragment baits (4.32 mM as printed) on magnetic glutathione beads, blocked with Odyssey blocking buffer; full-length SAS-5 prey (0.2 mM as printed) 1 h at 4 °C; washed with 50 mM Tris pH 8.0, 300 mM NaCl, 5 mM DTT; immunoblot with anti-GST and anti-SAS-5; GST alone as negative control. As to conditions: both partners purified.

For the molecule SAS-6 head domain (from UniProt Q6UVJ0), the Kd in test [1] is 75 µM.

B1: GST-ZYG-1 cryptic polo box (CPB) fragment spanning 338-564 (domain or fragment, C. elegans, UniProt Q9GT24 338-564, looked up)
chain: GTVPPSREDRNRSQLWPIRMDRLEGQRVCTAGGRYIVELDTRCRFEVAAQGNFVKRILIVEVDEMVQTVYVHRIPDRTVRGRNGEEELITLTNNPFVYTSYSQMPKEVQNDYMRLQKMVAVTISGRVAKVTFRRPSQFPDAQAQLMENGDLRIKLPRSVIVRKMDNGEIFNCIDGIATQKQAVSGITLTKVNEVYKYLIRFEQCLNGMDRGMVCFPIVFSAGTNMVG
notes: ZYG-1 of C. elegans, cryptic polo box (CPB), residues 338-564; also called ZYG-1 CPB; not shown: GST, N-terminal, kept; His6, C-terminal, kept
Regarding B1, in test [2], the binding result is recorded as “binds”.

B2: GST-ZYG-1(1-250) K41M (kinase domain, C-terminal 6X-His) (domain or fragment, C. elegans, UniProt Q9GT24 1-250, looked up)
chain: MSGGKSGSRLSAYSHLKEIGKGGFGVVYAAQRENGEKVAIMRIDKKVPKNRVWTEIQTMKELKKSKYVVEFYEDFVEDGYTYIVMELCEGGSLQAYVREHGALDDATAVHVLRQLISAVSFMHRVNVIHRDLSAGNVFIKDSKKKKMTVKLGDFGLATTLGRGETTCTIVGTPGFIAPQVYDQEYTQSADVYSLGAVLYTMLTARNPPPKGLPPTCGMSPNAARLVEQMMDTDAKKRIPLTQIVLSEFMY
notes: ZYG-1 of C. elegans, kinase domain, residues 1-250, with K41M (used to reduce toxicity to E. coli); also called kinase domain (amino acids 1-250); not shown: GST, N-terminal, kept; His6, C-terminal, kept
B2: the binding result in test [2] was “binds”.

Source of the values: paper PMC11169420, “The kinase ZYG-1 phosphorylates the cartwheel protein SAS-5 to drive centriole assembly in C. elegans” (EMBO Reports, 2024).
